Data on one molecule can be found in patent US20170334976A1 (ANNEXON, published 2017).

Assay [1] addresses T1, mouse C1q (mouse, UniProt P14106 26-253).
T1 construct: In the CH50 assay the C1q is the one present in C57Bl/6 mouse serum; also called mouse C1q protein
Put plainly: OCTET biosensor, C1q immobilized, full length antibody in solution. On the procedure: (§1) C1q-antibody interactions were measured using an OCTET™ System according to standard protocols and manufacturer's instructions. Briefly, human and mouse C1q proteins were immobilized separately on a biosensor at three concentrations (3 nM, 1.0 nM, and 0.33 nM).

For assay [2], the target named is T2, human complement factor C1q (human, UniProt P02745 23-245; P02746 28-253; P02747 29-245).
T2 construct: The immunogen was C1q purified from human plasma (Complement Technology A-099); In the CH50 assays the C1q is the one present in human serum; Observed mass about 460 kDa; also called human C1q; hC1q
T2 sequence (P02745 23-245 limits assumed, chain 1 of 3): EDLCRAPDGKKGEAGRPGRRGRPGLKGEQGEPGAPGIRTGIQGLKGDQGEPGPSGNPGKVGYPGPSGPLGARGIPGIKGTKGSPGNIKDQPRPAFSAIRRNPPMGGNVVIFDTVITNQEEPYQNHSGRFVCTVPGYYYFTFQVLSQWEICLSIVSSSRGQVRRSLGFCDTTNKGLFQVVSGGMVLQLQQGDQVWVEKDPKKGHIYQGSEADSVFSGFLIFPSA
T2 sequence (P02746 28-253 limits assumed, chain 2 of 3): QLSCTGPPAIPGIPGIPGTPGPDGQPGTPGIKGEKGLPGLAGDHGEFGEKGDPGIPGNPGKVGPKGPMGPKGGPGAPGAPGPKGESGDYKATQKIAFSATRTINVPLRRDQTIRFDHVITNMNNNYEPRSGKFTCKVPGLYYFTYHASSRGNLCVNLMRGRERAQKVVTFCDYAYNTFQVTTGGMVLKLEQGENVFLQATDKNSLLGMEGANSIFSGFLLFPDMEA
T2 sequence (P02747 29-245 limits assumed, chain 3 of 3): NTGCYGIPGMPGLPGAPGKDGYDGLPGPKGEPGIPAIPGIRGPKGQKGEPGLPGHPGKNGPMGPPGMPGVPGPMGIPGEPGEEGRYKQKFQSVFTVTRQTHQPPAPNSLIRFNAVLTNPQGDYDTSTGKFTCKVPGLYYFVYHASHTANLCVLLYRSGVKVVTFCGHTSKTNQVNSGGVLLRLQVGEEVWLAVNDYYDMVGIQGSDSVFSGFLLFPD
Described as above. The protocol:
as §1

In assay [3] the target is T2, human complement factor C1q. Put plainly: OCTET biosensor, C1q immobilized; human C1q. The protocol: as §1
Assay [4] deals with T1, mouse C1q. Put plainly: OCTET biosensor, C1q immobilized; mouse C1q. The protocol:
as §1

T1 sequence (chain, as listed by the source, chain 1 of 3): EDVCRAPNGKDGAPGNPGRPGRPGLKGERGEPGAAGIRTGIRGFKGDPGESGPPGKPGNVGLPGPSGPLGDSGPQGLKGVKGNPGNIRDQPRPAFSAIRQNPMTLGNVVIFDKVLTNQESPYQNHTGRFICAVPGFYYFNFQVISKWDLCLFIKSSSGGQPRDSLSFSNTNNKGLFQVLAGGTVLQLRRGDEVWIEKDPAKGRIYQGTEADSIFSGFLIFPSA
T1 sequence (P14106 26-253, chain 2 of 3): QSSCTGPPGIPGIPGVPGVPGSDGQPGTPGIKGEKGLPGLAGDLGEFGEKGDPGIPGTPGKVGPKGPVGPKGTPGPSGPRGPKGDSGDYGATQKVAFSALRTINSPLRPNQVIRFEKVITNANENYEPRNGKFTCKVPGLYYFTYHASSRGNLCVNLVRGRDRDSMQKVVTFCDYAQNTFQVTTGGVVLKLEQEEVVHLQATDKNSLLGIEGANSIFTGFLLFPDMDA
T1 sequence (chain, as listed by the source, chain 3 of 3): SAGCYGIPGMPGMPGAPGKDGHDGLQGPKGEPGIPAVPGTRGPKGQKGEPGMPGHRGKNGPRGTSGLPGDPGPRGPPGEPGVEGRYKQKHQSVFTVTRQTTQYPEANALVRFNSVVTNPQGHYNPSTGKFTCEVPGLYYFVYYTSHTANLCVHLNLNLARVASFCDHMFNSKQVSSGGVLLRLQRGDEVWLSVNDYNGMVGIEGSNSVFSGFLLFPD

B1: murine anti-human C1q monoclonal antibody M1 (antibody, mouse IgG1, V domains shown)
VH: QVQLQQPGAELVKPGASVKLSCKSSGYHFTSYWMHWVKQRPGQGLEWIGVIHPNSGSINYNEKFESKATLTVDKSSSTAYMQLSSLTSEDSAVYYCAGERDSTEVLPMDYWGQGTSVTVSS
VL: DVQITQSPSYLAASPGETITINCRASKSINKYLAWYQEKPGKTNKLLIYSGSTLQSGIPSRFSGSGSGTDFTLTISSLEPEDFAMYYCQQHNEYPLTFGAGTKLELK
notes: Tested as full length hybridoma antibody; Isotype mouse IgG1, kappa; also called ANN-005; anti-C1q antibody M1
With B1, the dissociation constant (Kd) in the assay with mouse C1q [1] was 0.0323 nM; in assay [2], 0.0128 nM; in assay [3] it was less than 0.1 nM; in the assay with mouse C1q [4], less than 0.1 nM.
